Results: the DeepSol protein solubility set

Test: soluble on expression in E. coli; label from the status in PepcDB or PDB records

Row | Sequence | soluble on expression in E. coli
1 | MDRVTRYPILGIPQAHRGTGLVLDGDTSYTYHLVCMGPEASGWGQDEPQTWPTDHRAQQGVQRQGVSYSVHAYTGQPSPRGLHSENREDEGWQVYRLGARDAHQGRPTWALRPEDGEDKEMKTYRLDAGDADPRRLCDLERERWAVIQGQAVRKSSTVATLQGTPDHGDPRTPGPPRSTPLEENVVDREQIDFLAARQQFLSLEQANKGAPHSSPARGTPAGTTPGASQAPKAFNKPHLANGHVVPIKPQVKGVVREENKVRAVPTWASVQVVDDPGSLASVESPGTPKETPIEREIRLAQEREADLREQRGLRQATDHQELVEIPTRPLLTKLSLITAPRRERGRPSLYVQRDIVQETQREEDHRREGLHVGRASTPDWVSEGPQPGLRRALSSDSILSPAPDARAADPAPEVRKVNRIPPDAYQPYLSPGTPQLEFSAFGAFGKPSSLSTAEAKAATSPKATMSPRHLSESSGKPLSTKQEASKPPRGCPQANRGVVRWEYFRLRPLRFRAPDEPQQAQVPHVWGWEVAGAPALRLQKSQSSDLLERERESVLRREQEVAEERRNALFPEVFSPTPDENSDQNSRSSSQASGITGSYSVSESPFFSPIHLHSNVAWTVEDPVDSAPPGQRKKEQWYAGINPSDGINSEVLEAIRVTRHKNAMAERWESRIYASEEDD | not soluble
2 | MKKTTLAMSALALSLGLALSPLSATAAETSSSAMTAQQMPSLAPMLEKVMPSVVSINVEGSTTVNTPRMPRNFQQFFGDDSPFCQDGSPFQNSPFCQGGGNGGNGGQQQKFMALGSGVIIDAAKGYVVTNNHVVDNASVIKVQLSDGRKFDAKVVGKDPRSDIALIQIQNPKNLTAIKLADSDALRVGDYTVAIGNPFGLGETVTSGIVSALGRSGLNVENYENFIQTDAAINRGNSGGALVNLNGELIGINTAILAPDGGNIGIGFAIPSNMVKNLTSQMVEYGQVKRGELGIMGTELNSELAKAMKVDAQRGAFVSQVMPNSSAAKAGIKAGDVITSLNGKPISSFAALRAQVGTMPVGSKISLGLLREGKAITVNLELQQSSQSQVDSSTIFSGIEGAEMSNKGQDKGVVVSSVKANSPAAQIGLKKGDVIIGANQQPVKNIAELRKILDSKPSVLALNIQRGDSSIYLLMQ | not soluble
3 | EVKEEDAFYSKKCKLFYKKDNEFKEKGIGTLHLKPTANQKTQLLVRADTNLGNILLNVLIPPNMPCTRTGKNNVLIVCVPNPPIDEKNATMPVTMLIRVKTSEDADELHKILLEKKDA | soluble
4 | MGSDKIHHHHHHMNAVLPRLAMRDIVKSFGSVRVLDGVSLDVMPGEIVALLGSNGAGKSTLMKILTANYTKNAGDIRVNDTLVDFASPRDAARVGITFLPQEISVFPELSVAENICMSADSKGTVDWSGMARRSAAVLDDLGFGHLSPDMLVADLPVAERRIIEIARALEGQADILVMDEPTASLSEQESEQIFTILRRLKDRGTSIVYISHYLKEVFEISDRIVVLRDGLNAGEFDPTTADVTKVVGAMLGKAAGSMFDDRDPLPASAPVVFTCAGLTLPGVIEDVSFDLRAGEILGIFGLIGSGVEVLGRAIFGTQGRPPAGAMTLNGTPYTPVSPRKGKEAGIGFVTAERKTDGIMADMSVRENIVAAFQSDLGHGPFTSPAREAAHTLDWIEKLGIKTSGPEQAIRLLSGGNQQKVCVARWLNPKVKMLILEEPTRGVDVGARREIYSHLVDFARSGLAVLVLSSDVEEVAGLSDRSLVIDRGRILAEFGRGATPGDLMAASAQSEHHD | not soluble
5 | MGSDKIHHHHHHMNRIGIIGAMQIEIDLLLEKLAIQEKQTIAGMPFYVGEFMGMEVIVTRCGVGKVNAAACTQTLIHKFDVDAIINTGVAGGLHPDVKVGDVVISTNVTHHDVSKTQMKNLFPFQEEFHASKKLMELARTACNSSSLHIGVHEGRIVSGECFVEDSKLKAKLIDEYAAHCTEMEGAAIGHVAYINEVPFLVIRCISDSADDEAQISYDDFAKTAANYCSEIIVEMLKNISSKTYSSKGGNEMLQAFIFDMDGTLFQTDKILELSLDDTFDHLRSLQLWDTVTPIEKYREIMGVPLPKVWETLLPNHSIEVREQTDAYFLERLIENIKSGKGALYPNVKEIFTYIKENNCSIYIASNGLTEYLRAIVSYYALDQWVTETFSIEQINSLNKSDLVKSILNKYDIKEAAIVGDRLSDINAAKDNGLFAIGCNFDFAQEDELVQADIVIDDLMELKGILPAVQR | not soluble
6 | MSLNPKIITQYKNKKVDAASTMTDISGKNILMGFWHNWPSESGQGYQQGMFAEMPLTGIDKAYNVIAVAFMKGAGIPTFKPYNLSDEAFRAQVAELNAQGRAVLISLGGADAHIELHAGQEEALAYEIIRLVEVYGFDGLDIDLEQAAITFADNRTVLPAALRMVREHYETEGKHFIISMAPEFPYLRSAARDTPLLKEITTYFPFLKEAVAFLTSFRSGGAYLAYIEALEDLYDFIAPQYYNQGGDGIWVDELNLWVTQNNDAHKKEFLYYLTDSLIHGTRGFTKIPANRLAIGLPTNNDAAATGYVINPDDVKYALDTLQADGNPIRGLMTWSVNWDNGTPKVGEAYKWEFAKRYGYLTGGEGHHHHHH | soluble
7 | MASKRIIRMSDLLHTTPVFNRGYRFQWEQAQQSYVILYPEGLVRLNESATLILKQIDGKLTVHDIIQNLSAQFPDATGLDQDIVEFLKQAESRQWICLQ | not soluble
8 | MPCVQAQYGSSPQGASPASQSYSYHSSGEYSSDFLTPEFVKFSMDLTNTEITATTSLPSFSTFMDNYSTGYDVKPPCLYQMPLSGQQSSIKVEDIQMHNYQQHSHLPPQSEEMMPHSGSVYYKPSSPPTPTTPGFQVQHSPMWDDPGSLHNFHQNYVATTHMIEQRKTPVSRLSLFSFKQSPPGTPVSSCQMRFDGPLHVPMNPEPAGSHHVVDGQTFAVPNPIRKPASMGFPGLQIGHASQLLDTQVPSPPSRGSPSNEGLCAVCGDNAACQHYGVRTCEGCKGFFKRTVQKNAKYVCLANKNCPVDKRRRNRCQYCRFQKCLAVGMVKEVVRTDSLKGRRGRLPSKPKSPQEPSPPSPPVSLISALVRAHVDSNPAMTSLDYSRFQANPDYQMSGDDTQHIQQFYDLLTGSMEIIRGWAEKIPGFADLPKADQDLLFESAFLELFVLRLAYRSNPVEGKLIFCNGVVLHRLQCVRGFGEWIDSIVEFSSNLQNMNIDISAFSCIAALAMVTERHGLKEPKRVEELQNKIVNCLKDHVTFNNGGLNRPNYLSKLLGKLPELRTLCTQGLQRIFYLKLEDLVPPPAIIDKLFLDTLPF | soluble
9 | MAHHHHHHMSEENNIRKGPSFVFHDIKKKRMREIILMCNKKKQKKMLLKSLNIKFIYEEKNKKRVKIHVDNFLPVSINSDMEIIKKYKEILYDDNYCNIYDINKLKIGKMKKILKDFFYDIFLFCKYIFYKFIYKCQNIINLFLEYKQIMLSHCINRVPYFIKVFSFSSLHILLKYSIRSFFKNYSFYKYIFTPNYKICFLCIHKNSYYSEIEKEDTSQICFDDVSTCQEINILGSEEYLRGLVTSSVGFIDNYDDKNRGNNFLEIFQKHMNIFDIKKDDVHFKINKYEQRIDIEKAFSHIKNNILQKYDERRREKKKDNDKLIRRVQNMYDDVENKIMSSLKKILDITNYDEEREKC | soluble
10 | VRSTPPASAGRSTPPALAGHSTPPALAGHSTLCGRPVAGDRALIMAIVNRTPDSFYDKGATFSDAAARDAVHRAVADGADVIDVGGVKAGPGERVDVDTEITRLVPFIEWLRGAYPDQLISVDTWRAQVAKAACAAGADLINDTWGGVDPAMPEVAAEFGAGLVCAHTGGALPRTRPFRVSYGTTTRGVVDAVISQVTAAAERAVAAGVAREKVLIDPAHDFGKNTFHGLLLLRHVADLVMTGWPVLMALSNKDVVGETLGVDLTERLEGTLAATALAAAAGARMFRVHEVAATRRVLEMVASIQGVRPPTRTVRGLA | soluble
11 | MGSDKIHHHHHHKQLVHEGYRVTGCKRSAEELSALTEVGIEAYPLQLGSEAPSAPDAQALSGLFQTDYLVVNIPPRLKRGNAAYLEELQQLIALTQGWQYQQIVFISTTGVYPAKDKVMTEADALAESSDSQVLLDAEALFQVLPHACIVRFAGLVGPKRHPGRFLAGKTDVSGANVAVNLVHLSDCVSAVSRILAATGSGLSVAPIYNLCAPTHPTKAEFYQAAAESLGLVAPEFNQQSMPSKVIQGDAIVTDLGFRYQYASPQDMLAAC | not soluble
12 | MGSDKIHHHHHHMGNEVYDAVVVGAGFAGLTAARELSRQGLAVHIVEARDRIGGRTWLDHRLGRDLEIGGTWVHWTQPHVWAELTRYGLETTPSPEPERAFWWADGCRHEGRPDELLGLIGQTNEEFVRDSRKYFPEPFRPMARDDFKSIDHVSVQARIREQFPAGAPRDILESFWALNFNGPLDNAALTQAFRWVALTNGDWAVNFEACATYKIVGGTAALAASMLADSGAGIQYGFKVEAVAEDADVVEIRSADGRTVRARTAIVTVPLHALNAVDFEPPLPAAKAEAASLGQVSKGAKVWFRLRGEHAPFVALGGADWPLNFFQVEYALDGDTIAVGFGPDAAKIEVEDPVAVQAQLARLVPGAEVVAVASHNWVDDPLSGETWPMHRTGFLSTHLPAMQASHGLVLFAGSDIANGWCGFIDGAIESGMGAALDAASLLAGGRP | not soluble
13 | MNLVSLRDSPQYLERAIAYFQSKWGNENTKMVYDNCFRHSLNAENPIPQWYLLMNGDEIIGCAGLTSNDFNSRADLYPWLVALFIEEKYRGNHYANLLIEQAKKDTLKFGFSKLYLSTSHTSYYERLGFTYIGDCWHPWGESSRVYEIILKF | not soluble
14 | MFKEVGEPNFPKLEEEVLAFWKREKIFQKSVENRKGGPRYTVYEGPPTANGLPHVGHAQARSYKDLFPRYKTMRGYYAPRRAGWDTHGLPVELEVEKKLGLKSKREIEAYGIERFNQACRESVFTYEKEWEAFTERIAYWVDLENAYATLEPTYIESIWWSLKNLFDRGLLYRDHKVVPYCPRCGTPLSSHEVALGYKEIQDPSVYVRFPLKEPKKLGLEKASLLIWTTTPWTLPGNVAAAVHPEYTYAAFQVGDEALILEEGLGRKLLGEGTPVLKTFPGKALEGLPYTPPYPQALEKGYFVVLADYVSQEDGTGIVHQAPAFGAEDLETARVYGLPLLKTVDEEGKLLVEPFKGLYFREANRAILRDLRGRGLLFKEESYLHSYPHCWRCSTPLMYYATESWFIKNTLFKDELIRKNQEIHWVPPHIKEGRYGEWLKNLVDWALSRNRYWGTPLPIWVCQACGKEEAIGSFQELKARATKPLPEPFDPHRPYVDQVELACACGGTMRRVPYVIDVWYDSGAMPFASLHYPFEHEEVFRESFPADFIAEGIDQTRGWFNFLHQLGVMLFGSIAFKNVICHGLILYEMGQKMSKSKGNVVDPWDIIREFGADALRWYIYVSAPPEADRRFGPNLVRETVRDYFLTLWNVYSFFVTYANLDRPDLKNPPPPEKRPEMDRWLLARMQDLIQRVTEALEAYDPTTSARALRDFVVEDLSQWYVRRNRRRFWKNEDALDREAAYATLYEALVLVATLAAPFTPFLAEVLWQNLVRSVRPEAKESVHLADWPEADPALADEALVAQMRAVLKVVDLARAARAKSGVKTRTPLPLLLVTAPTALEREGLKRFAHEIAEELNVKEVRVLEPGEEILSYRVLPNLKLLGRKYGKLVPKIREALQRERERAAALALKGEAIPLEVEGEALTLLPEEVLLEAEAPKGYQALEKDGYVAALKVEVTEALRMEGLARDLIRLLQQARKDMGLKVSDRIRVGYEAEGPYLEALKRHGPWIAEEVLATAFGEGLFGGFEARVEDEEGKAVFHLARAE | soluble
15 | MVTKFLIFVSENQQLTSKFNLVTRQNADLKIGLRGVLFSIQGLREELSVAKQRIEEMKEDSFFESMPKLEREAPAFMDSPAETSSPDVEMEDVVYEEVVKETEVANF | not soluble
16 | AEIFATHLEAIARHTGPVRTLIDLGAGDCAKAERLLPCLRPQRYVPIDISTDFLGQAVARVRRAHPWLDVLPLGRDLNAGLDLPEAIDAQGRLFFYPGSSIGNLDPDAALALLASLRAQAGVSGGLLIGVDRVKARAIVEPAYDDALHLTGAFNLNLLRHVNSVLGSDFDVRDWTHVALYNEPRSRMEMHLQARSDIRVRWPGGQRRFQADERIHTENSYKYTIERFVDLLRRAGYGDIRYWSDARDWFSVFSARA | not soluble
